According to the supplement of paper PMC7125110:
± gives the standard error. Variants at the floor of the assay were thinned out.

B1: glmS ribozyme (parent)
chain: AUAAAAGCGCCAGAACUACAGAAAUGUAGUUGACGAGGAGGAGGUUUAUCGAAUUUUCGGCGGAUGCCUCCAAA

Assays:
Settings in all cases: with glucosamine-6-phosphate
glucosamine-6-phosphate [1] = variants of: B1; experiment: self-cleavage kobs at 40 uM GlcN6P; higher = faster cleavage; RNA array
How it was run: (§1)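 Over ~14 h at 37 °C, tiles were imaged as glucosamine-6-phosphate (40 μM to 10 mM) in HEPES/KCl/Mg(OAc)2 buffer flowed across sequenced MiSeq chips. The chips carried barcoded ribozyme variants transcribed in situ by E. coli RNA polymerase and tracked with a hybridised Cy3 probe. After normalisation to baseline and to non-cleaving reference variants, one- or two-exponential decay fits of per-tile medians gave kobs. kcat and KM followed from weighted Michaelis–Menten fits across concentrations.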

glucosamine-6-phosphate [2] = variants of: B1; experiment: self-cleavage kobs at 10000 uM GlcN6P; higher = faster cleavage; RNA array
How it was run: as §1

glucosamine-6-phosphate [3] = variants of: B1; experiment: self-cleavage kobs at 160 uM GlcN6P; higher = faster cleavage; RNA array
How it was run: as §1

glucosamine-6-phosphate [4] = variants of: B1; experiment: self-cleavage kobs at 640 uM GlcN6P; higher = faster cleavage; RNA array
How it was run: as §1

glucosamine-6-phosphate [5] = variants of: B1; experiment: self-cleavage kobs at 2500 uM GlcN6P; higher = faster cleavage; RNA array
How it was run: as §1

Variant	self-cleavage kobs at 40 uM GlcN6P (glucosamine-6-phosphate [1]) [s⁻¹]	self-cleavage kobs at 10000 uM GlcN6P (glucosamine-6-phosphate [2]) [s⁻¹]	self-cleavage kobs at 160 uM GlcN6P (glucosamine-6-phosphate [3]) [s⁻¹]	self-cleavage kobs at 640 uM GlcN6P (glucosamine-6-phosphate [4]) [s⁻¹]	self-cleavage kobs at 2500 uM GlcN6P (glucosamine-6-phosphate [5]) [s⁻¹]
AUAAAAGCGCCAGAACUACAGAAAUGUAGAUGACGAGGAGGAGGUUUAUCGAAGUUUCGGCGGAUGCCUCCAAA [U30A U54G]	0.000119 ± 2.1e-05	0.00479 ± 0.00078			
AUAAAAGCGCGAGAACUACAGAAAUGUAGUUGACGAGGAGGAGGUUUAUCGAAUUUUCGGCGGAUGCCGCCAAA [C11G U69G]	3.62e-05 ± 1.4e-05		0.000125 ± 2.3e-05	0.000184 ± 3.4e-05	8.88e-05 ± 1.6e-05
AUAAAAGCGCCUGGACUACAGAAAUGUAGUUGACGAGGAGGAGGUUUAUCGAAUUUUCGGCGGUUUCCUCCAAA [A12U A14G A64U G66U]	< 1e-05				
AUAAAAGCGACAGAACUACAGAAAUGUAGUUGACGAGUAAGAGGUUUAUCGAAUUUUCGGCGGAUGCCUCCAAA [C10A G38U G40A]	< 1e-05	< 1e-05	< 1e-05	< 1e-05	< 1e-05
AUAAAACCGCCAGAACUACAGAAAUGUAGUUGACAAGGAGGAGGUUUAUCGAAUUUUCGGCGGAUGCCUCCAAA [G7C G35A]	< 1e-05	< 1e-05		< 1e-05	< 1e-05
AUAAAAGCGCCAGGACUACAGAAAUGUAGUUGACGAGGAGGAGGUUUAUCGAAUCUUCGGCGGCUGCCUCCAAA [A14G U55C A64C]	< 1e-05				
AUAAAAGUGCCAGAACUACAGAAAUGUAGUUGACGAGUAGGAGGUUUAGAGAAUUUUCGGCGGAUGCGUCCAAA [C8U G38U U49G C50A C68G]	0.00105 ± 0.00026	0.000545 ± 0.00014			
AUAAAAUCGCGAGAACUACAGAAAUGUAGUUGACGAGGAGGAGGUUUAUCGAAUUUUCGGCGGAUGCCUCCAAA [G7U C11G]	< 1e-05	< 1e-05	< 1e-05	< 1e-05	< 1e-05
AUAAAAGCACCAGAACUACAGAAAUGUAGUUGACGAGGAGGAGGUUUGUCGAAUUUUCGGCGGAUGCCUCCAAA [G9A A48G]	< 1e-05	< 1e-05		< 1e-05	< 1e-05
AUAAAUGCGCCAGAACUACAGAAAUGUAGUUGACGAGGAGGAGAUUUAUCGAAUUUUCGGCGGAUGCCUUCAAA [A6U G44A C70U]	< 1e-05				
AUAAAAGCGCCAGAACUACAGAAAUGUAGUUGACGAGGAGGAGGUUUAUCGAAUGUUAGCGGGAUGACUCCAAA [U55G C58A G60C C61G C67A]	< 1e-05				
AUAAAAGCGCCACAACUACAGAAAUGUAGUUGACGAGGAGGAGGUUUGUCGAAUUUUCGGCGGAUUCCUCGAAA [G13C A48G G66U C71G]	< 1e-05	< 1e-05			
AUAAAAUCGCCAGAACUACAGAAAUGUAGUUGACGAGGAGGAGGUUUAUCGAACUUUCGGCGGAUGCCUCCAAA [G7U U54C]	< 1e-05	< 1e-05	< 1e-05	< 1e-05	
AUAAAAGGGCCAGAACUACAGAAAUGUAGUUGACGAGGAGGAGGCUUAUCGAAUUUUCGGCAGAUGCCUCCAAA [C8G U45C G62A]	< 1e-05	< 1e-05			
AUAAACGCGCCAGAACUACAGAAAUGUAGUUGACGAGGAGGAGGUUUAUCGUAACUUCGGCGGAUGCCUCCAAA [A6C A52U U54A U55C]	< 1e-05	< 1e-05		< 1e-05	
AUAAAAGCGCCAGAACUACAGAAAUGUAGUUGACGAGGAGGAGGUUUAUCGAAUUGUCGGCGGAAGCCUCCAAA [U56G U65A]	3.91e-05 ± 7.3e-06	0.0026 ± 0.0003		0.000245 ± 6.8e-05	0.000827 ± 0.0002

Variant	self-cleavage kobs at 40 uM GlcN6P (glucosamine-6-phosphate [1]) [s⁻¹]	self-cleavage kobs at 10000 uM GlcN6P (glucosamine-6-phosphate [2]) [s⁻¹]	self-cleavage kobs at 160 uM GlcN6P (glucosamine-6-phosphate [3]) [s⁻¹]	self-cleavage kobs at 640 uM GlcN6P (glucosamine-6-phosphate [4]) [s⁻¹]	self-cleavage kobs at 2500 uM GlcN6P (glucosamine-6-phosphate [5]) [s⁻¹]
AUAAAAGCGCAAGAACUACAGAAAUGUAGUUAACGAGGUGGAGGUUUAUCGAAUUUUCGGCGGAUGCCUCCAAA [C11A G32A A39U]	< 1e-05			< 1e-05	
AUAAAAGCGCCAGAACUACAGAAAUGUAGUUGACGAUGAUGAGGUUUAUCGAAUUUUCGGCGGAUGGCUCCAAA [G37U G40U C67G]	< 1e-05			< 1e-05	< 1e-05
AUAAAAGCGCAAGAACUACAGAAAUGUAGUUGACGAGGAGGAGGUUUAUCGAAUUUUCCGCGGAUGCCUCCAAA [C11A G59C]	< 1e-05		< 1e-05	< 1e-05	
AUAAAAGCGCCAGAGCUACAGAAAUGUAGUUGACGAGGAGGAGGUUUAUCGAAUUUUCGGCUGAUGCCUCCAAA [A15G G62U]	< 1e-05	< 1e-05			
AUAAAAGCGCCAGAACUACAGAAAUGUAGUGGACGAGGAGGAGGUUUAUCGAUUUUUGGACGGAUGCCUCCAAA [U31G A53U C58G G60A]	< 1e-05	< 1e-05			
AUAAAAGCGGCAGAACUACAGAAAUGUAGUUGGCGAGGAGGAGGUUUAUCGUAUUUUUGGCGGUUGCCUCCAAA [C10G A33G A52U C58U A64U]	< 1e-05				
AUAAAAGCGCCAGAACUACAGAAAUGUAGUUGACGAGGAGGAGGUUUAUCGUAUUUUCGGCGGGUGCCACCAAA [A52U A64G U69A]	< 1e-05				
AUAAAAGCUCCAGAACUACAGAAAUGUAGUUGACGAGGAGGAGGUUUAUUGAAUUUUCGGCGGAUGCCUUCAAA [G9U C50U C70U]	< 1e-05				
AUAAAAGCGCCAGAAGUACAGAAAUGUAGUCGACGAGGAGGAGGCUUAUCGAAUUUUCGGCGGAUGCCUCCAAA [C16G U31C U45C]	< 1e-05				
AUAAAAGCGCCAGAACUACAGAAAUGUAGUUGACGAGGAGGAGGUUUAUCGAAUUUUCUGCGUAUGACUCCAAA [G59U G63U C67A]	< 1e-05	< 1e-05			
AUAAAAGCGCCAGAACUACAGAAAUGUAGUUUAUGAGGAGGCGGUUUAUCGAAUUUUCGGCGGAUGCCUCCAAA [G32U C34U A42C]	< 1e-05				< 1e-05
AUAAAAACGCCAGAACUACAGAAAUGUAGUUGACGAGGAGGAGGUUUAUCGUAUUUUCGGCGGGUGCCUCAAAA [G7A A52U A64G C71A]	< 1e-05		< 1e-05	< 1e-05	< 1e-05
AUAAAAGCGCCAGAACUACAGAAAUGUAGUUGACGAGGAGGCGGUUUAUCAAAUUUUCGGCGGAUGCCUCCAAA [A42C G51A]	< 1e-05	< 1e-05			< 1e-05
AUAAAAGCGCCAGAACUACAGAAAUGUAGUUGACGAGGAGGAGGUUUAUCGAAUUUUCGACGGAUGCCUCUAAA [G60A C71U]	< 1e-05			< 1e-05	
AUAAAAGCGCCAGAACUACAGAAAUGUAGUUGACGAGGAGGAGGUUUGUCGAAUUUUCGGCGGACGCCUCCAAA [A48G U65C]	< 1e-05	< 1e-05			
